In test [1] the target is rat lutropin receptor (LHR) (rat) (UniProt P16235). Kind of test: cell-based or functional assay.
Test [2] shares this target. The test is described as follows: receptor binding assay.
Test [3] has the same target. Kind of test: inhibition of 125I-hCG binding to CHO cells with rat LHR; from IC50; acid-stable hCGβ-S138C analog.

Sequence of rat lutropin receptor (LHR) (rat) (P16235 27-700): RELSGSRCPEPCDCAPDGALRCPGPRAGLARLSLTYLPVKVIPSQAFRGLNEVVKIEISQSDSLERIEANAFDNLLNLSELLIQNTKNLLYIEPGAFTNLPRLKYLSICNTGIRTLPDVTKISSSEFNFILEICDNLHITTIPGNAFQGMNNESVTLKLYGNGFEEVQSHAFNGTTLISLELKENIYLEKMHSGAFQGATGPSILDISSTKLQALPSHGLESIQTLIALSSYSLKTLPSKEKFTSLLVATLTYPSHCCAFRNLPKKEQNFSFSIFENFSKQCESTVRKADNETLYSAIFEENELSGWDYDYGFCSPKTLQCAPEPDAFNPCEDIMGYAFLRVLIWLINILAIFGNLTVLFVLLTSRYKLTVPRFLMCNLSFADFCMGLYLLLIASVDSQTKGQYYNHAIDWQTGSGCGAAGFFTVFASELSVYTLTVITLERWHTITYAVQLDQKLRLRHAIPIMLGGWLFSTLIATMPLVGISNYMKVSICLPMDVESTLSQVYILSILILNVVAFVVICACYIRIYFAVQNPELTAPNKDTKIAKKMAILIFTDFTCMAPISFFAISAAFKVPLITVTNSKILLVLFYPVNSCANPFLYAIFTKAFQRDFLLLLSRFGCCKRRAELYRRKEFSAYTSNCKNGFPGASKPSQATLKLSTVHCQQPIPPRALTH

Take “analog containing the entire carboxyterminal residues of the hCG β-subunit attached to the α-subunit (from UniProt P01215 25-116) (ligand)”: the signaling assays in test [1] was 50 % of hCG. Also, the activity relative to hCG in test [2] was > 50 % of hCG.
Regarding “αT86C + hCGβ-S138C (from UniProt P01215 25-116; P0DN86 21-165) (ligand)”, in test [1], the Signal transduction potency (cAMP accumulation), acid-stable analog was 0.18 % of hCG. The Receptor-Binding potency (percent hCG) in test [3] was 2.2 % of hCG.
The matching figures for “αY88C + hCGβ-S138C (from UniProt P01215 25-116; P0DN86 21-165) (ligand)”: 0.12 % of hCG and 0.05 % of hCG.

The values above are taken from patent publication US20060177894A1.
